In PMC12606367, “CryoEM and computational modeling structural insights into the pH regulator NBCn1” (Nature Communications, 2025):

Target: the molecule itself
Assay: cryo-EM structure; purified NBCn1 (~1.5 mg/ml) in 20 mM Tris-HCl, 115 mM NaCl, 25 mM NaHCO3, pH 7.4, 0.01% LMNG; dimer peak of Superose 6 put on grids; three dimeric states (3.5, 3.4, 3.3 Å), final map 3.3 Å

B1: N-terminally Strep(II)-tagged wt-human NBCn1-A (natural protein, UniProt Q9Y6M7-1 1-1214, looked up)
chain: MERFRLEKKLPGPDEEAVVDLGKTSSTVNTKFEKEELESHRAVYIGVHVPFSKESRRRHRHRGHKHHHRRRKDKESDKEDGRESPSYDTPSQRVQFILGTEDDDEEHIPHDLFTEMDELCYRDGEEYEWKETARWLKFEEDVEDGGDRWSKPYVATLSLHSLFELRSCILNGTVMLDMRASTLDEIADMVLDNMIASGQLDESIRENVREALLKRHHHQNEKRFTSRIPLVRSFADIGKKHSDPHLLERNGEGLSASRHSLRTGLSASNLSLRGESPLSLLLGHLLPSSRAGTPAGSRCTTPVPTPQNSPPSSPSISRLTSRSSQESQRQAPELLVSPASDDIPTVVIHPPEEDLEAALKGEEQKNEENVDLTPGILASPQSAPGNLDNSKSGEIKGNGSGGSRENSTVDFSKVDMNFMRKIPTGAEASNVLVGEVDFLERPIIAFVRLAPAVLLTGLTEVPVPTRFLFLLLGPAGKAPQYHEIGRSIATLMTDEIFHDVAYKAKDRNDLLSGIDEFLDQVTVLPPGEWDPSIRIEPPKSVPSQEKRKIPVFHNGSTPTLGETPKEAAHHAGPELQRTGRLFGGLILDIKRKAPFFLSDFKDALSLQCLASILFLYCACMSPVITFGGLLGEATEGRISAIESLFGASLTGIAYSLFAGQPLTILGSTGPVLVFEKILYKFCRDYQLSYLSLRTSIGLWTSFLCIVLVATDASSLVCYITRFTEEAFAALICIIFIYEALEKLFDLGETYAFNMHNNLDKLTSYSCVCTEPPNPSNETLAQWKKDNITAHNISWRNLTVSECKKLRGVFLGSACGHHGPYIPDVLFWCVILFFTTFFLSSFLKQFKTKRYFPTKVRSTISDFAVFLTIVIMVTIDYLVGVPSPKLHVPEKFEPTHPERGWIISPLGDNPWWTLLIAAIPALLCTILIFMDQQITAVIINRKEHKLKKGAGYHLDLLMVGVMLGVCSVMGLPWFVAATVLSISHVNSLKVESECSAPGEQPKFLGIREQRVTGLMIFILMGLSVFMTSVLKFIPMPVLYGVFLYMGVSSLKGIQLFDRIKLFGMPAKHQPDLIYLRYVPLWKVHIFTVIQLTCLVLLWVIKVSAAAVVFPMMVLALVFVRKLMDLCFTKRELSWLDDLMPESKKKKEDDKKKKEKEEAERMLQDDDDTVHLPFEGGSLLQIPVKALKYSPDKPVSVKISFEDEPRKKYVDAETSL
modifications: N-acetylglucosamine on Asn776, Asn786 and Asn796; disulfide bonds Cys766-Cys814 and Cys768-Cys802
notes: human NBCn1-A (SLC4A7), NP_003606.3, 1214 aa, full length; the atomic model holds residues 581 to 1207; Homodimer in the cryoEM map; only residues 581-1207 (transmembrane domain and C-terminal helix) were built, the cytoplasmic N-terminal part is not in the model; also called SLC4A7; full-length human NBCn1; source: HEK293 cells, transfected (pcDNA3.1(+)), purified (StrepTrap HP, Superose 6 SEC, …)
B1 was tested, and the “stoichiometry N” value was 2.
